The results in this text go back to paper PMC6340141.

This experiment concerns the target T1, native KCC2 (neuron-specific K+-Cl- cotransporter) (mouse (endogenous in mouse brain)), Q91V14.
T1 chain: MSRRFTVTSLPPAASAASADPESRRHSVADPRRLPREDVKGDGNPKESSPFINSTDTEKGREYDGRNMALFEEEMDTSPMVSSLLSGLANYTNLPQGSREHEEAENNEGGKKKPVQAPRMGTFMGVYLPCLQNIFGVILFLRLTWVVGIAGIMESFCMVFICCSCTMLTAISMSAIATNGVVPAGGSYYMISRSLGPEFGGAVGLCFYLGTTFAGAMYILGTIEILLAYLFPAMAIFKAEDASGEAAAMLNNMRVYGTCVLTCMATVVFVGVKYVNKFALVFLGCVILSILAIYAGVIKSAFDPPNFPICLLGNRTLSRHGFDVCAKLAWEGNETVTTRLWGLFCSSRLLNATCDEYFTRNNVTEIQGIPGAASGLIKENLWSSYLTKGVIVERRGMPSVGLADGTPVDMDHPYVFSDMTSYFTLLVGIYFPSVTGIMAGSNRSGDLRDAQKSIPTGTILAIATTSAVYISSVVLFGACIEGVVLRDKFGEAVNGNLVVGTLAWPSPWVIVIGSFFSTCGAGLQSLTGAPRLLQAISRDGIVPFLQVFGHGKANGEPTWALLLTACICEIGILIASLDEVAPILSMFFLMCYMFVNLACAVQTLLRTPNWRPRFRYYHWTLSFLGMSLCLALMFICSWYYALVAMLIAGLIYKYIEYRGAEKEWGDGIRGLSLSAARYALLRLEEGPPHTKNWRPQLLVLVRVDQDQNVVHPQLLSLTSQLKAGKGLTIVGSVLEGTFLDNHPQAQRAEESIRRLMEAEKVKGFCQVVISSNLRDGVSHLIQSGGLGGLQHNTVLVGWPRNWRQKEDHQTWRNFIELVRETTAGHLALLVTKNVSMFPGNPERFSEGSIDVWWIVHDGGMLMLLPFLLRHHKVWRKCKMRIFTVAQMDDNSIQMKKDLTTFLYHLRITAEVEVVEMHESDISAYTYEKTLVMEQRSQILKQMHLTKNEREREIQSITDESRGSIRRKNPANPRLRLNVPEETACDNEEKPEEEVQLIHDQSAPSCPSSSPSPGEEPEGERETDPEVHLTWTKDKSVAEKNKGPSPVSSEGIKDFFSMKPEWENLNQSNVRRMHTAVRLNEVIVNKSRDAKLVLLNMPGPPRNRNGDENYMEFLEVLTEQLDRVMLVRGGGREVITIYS
The experiment in a line: native gel or EMSA. The following applies: remark: other sources report otherwise. In general terms: In EMSA bound probe runs differently from free probe, usually more slowly.

B1: native KCC2 (neuron-specific K+-Cl- cotransporter), Q91V14 1-1138 (natural protein)
chain: MSRRFTVTSLPPAASAASADPESRRHSVADPRRLPREDVKGDGNPKESSPFINSTDTEKGREYDGRNMALFEEEMDTSPMVSSLLSGLANYTNLPQGSREHEEAENNEGGKKKPVQAPRMGTFMGVYLPCLQNIFGVILFLRLTWVVGIAGIMESFCMVFICCSCTMLTAISMSAIATNGVVPAGGSYYMISRSLGPEFGGAVGLCFYLGTTFAGAMYILGTIEILLAYLFPAMAIFKAEDASGEAAAMLNNMRVYGTCVLTCMATVVFVGVKYVNKFALVFLGCVILSILAIYAGVIKSAFDPPNFPICLLGNRTLSRHGFDVCAKLAWEGNETVTTRLWGLFCSSRLLNATCDEYFTRNNVTEIQGIPGAASGLIKENLWSSYLTKGVIVERRGMPSVGLADGTPVDMDHPYVFSDMTSYFTLLVGIYFPSVTGIMAGSNRSGDLRDAQKSIPTGTILAIATTSAVYISSVVLFGACIEGVVLRDKFGEAVNGNLVVGTLAWPSPWVIVIGSFFSTCGAGLQSLTGAPRLLQAISRDGIVPFLQVFGHGKANGEPTWALLLTACICEIGILIASLDEVAPILSMFFLMCYMFVNLACAVQTLLRTPNWRPRFRYYHWTLSFLGMSLCLALMFICSWYYALVAMLIAGLIYKYIEYRGAEKEWGDGIRGLSLSAARYALLRLEEGPPHTKNWRPQLLVLVRVDQDQNVVHPQLLSLTSQLKAGKGLTIVGSVLEGTFLDNHPQAQRAEESIRRLMEAEKVKGFCQVVISSNLRDGVSHLIQSGGLGGLQHNTVLVGWPRNWRQKEDHQTWRNFIELVRETTAGHLALLVTKNVSMFPGNPERFSEGSIDVWWIVHDGGMLMLLPFLLRHHKVWRKCKMRIFTVAQMDDNSIQMKKDLTTFLYHLRITAEVEVVEMHESDISAYTYEKTLVMEQRSQILKQMHLTKNEREREIQSITDESRGSIRRKNPANPRLRLNVPEETACDNEEKPEEEVQLIHDQSAPSCPSSSPSPGEEPEGERETDPEVHLTWTKDKSVAEKNKGPSPVSSEGIKDFFSMKPEWENLNQSNVRRMHTAVRLNEVIVNKSRDAKLVLLNMPGPPRNRNGDENYMEFLEVLTEQLDRVMLVRGGGREVITIYS
For B1, the stoichiometry N worked out at 4.

As a reminder, the stoichiometry N is a count of units in the complex or per binding partner.
